The series concerns the target human alpha-thrombin (Homo sapiens, UniProt P00734;P00734 328-363;364-622). Briefly: FRET.

The results in this text go back to publication PMC1409677.

For the molecule TAAGTTCATCTCGGTTGGTGTGGTTGG (structured_DNA) [APT (thrombin aptamer with 12 nt 5' toehold)], the binding result is “binds”.
